Laboratory results: PMC3577912, “A Novel Role for Arabidopsis CBL1 in Affecting Plant Responses to Glucose and Gibberellin during Germination and Seedling Development” (PLoS ONE, 2013)

Target: T1, His-AKINβ1 fusion protein (Arabidopsis thaliana, UniProt Q84VQ1 1-283)
T1 construct: AKINβ1, β regulatory subunit of SnRK1, Arabidopsis thaliana, AT5G21170; also called pET-AKINβ1; His-tagged AKINβ1
T1 sequence (looked up): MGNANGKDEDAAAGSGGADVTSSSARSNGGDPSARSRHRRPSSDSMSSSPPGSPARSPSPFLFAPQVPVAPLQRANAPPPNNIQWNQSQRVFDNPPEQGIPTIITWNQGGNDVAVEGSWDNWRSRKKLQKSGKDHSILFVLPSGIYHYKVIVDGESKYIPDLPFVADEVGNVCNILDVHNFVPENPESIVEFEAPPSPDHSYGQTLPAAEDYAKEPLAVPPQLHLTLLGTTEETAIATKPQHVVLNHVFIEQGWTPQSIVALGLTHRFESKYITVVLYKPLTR
Experiment: pull-down; about 5 µg GST-CBL1 immobilised on Glutathione-Sepharose 4B beads, incubated with His-AKINβ1 overnight at 4°C, washed five times with ice-cold PBS, Western blot with anti-His antibody
Details: both partners purified

B1: GST-CBL1 fusion protein (natural protein)
chain: not shown
notes: Calcineurin B-like protein 1 (CBL1), Arabidopsis thaliana, AT4G17615; also called pGEX-CBL1; glutathione S-transferase (GST)-CBL1; source: E. coli BL21 (DE3), purified (Glutathione Sepharose)
**Q.** Does B1 bind?
**A.** Result: binds
